Data as given in patent US10100114B2, “Antibodies specific for TROP-2 and their uses” (RINAT NEUROSCIENCE CORP., priority 2011, dated 2018).

Experiments:
huTrop-2 = molecular target: T1, huTrop-2 (Homo sapiens, UniProt P09758); test: Biacore SPR affinity of anti-Trop-2 mouse antibodies; type: binding; conditions: mouse IgG captured by anti-mouse IgG; monomeric Trop-2 extracellular domain as analyte
T1 construct: Monomeric Trop-2 extracellular domain prepared from papain digestion of Trop-2-Fc fusion protein; Fc (cleaved yes); made in house
T1 sequence (P09758 27-274 limits assumed): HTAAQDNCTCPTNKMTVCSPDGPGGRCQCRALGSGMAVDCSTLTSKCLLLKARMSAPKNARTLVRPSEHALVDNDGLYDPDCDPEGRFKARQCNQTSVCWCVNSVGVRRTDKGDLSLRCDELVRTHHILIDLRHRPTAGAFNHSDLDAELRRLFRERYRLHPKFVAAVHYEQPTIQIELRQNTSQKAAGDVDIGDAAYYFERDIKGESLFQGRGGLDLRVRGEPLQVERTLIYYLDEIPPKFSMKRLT
Method: The affinities of anti-Trop-2 mouse antibodies generated from hybridomas were measured on a surface plasmon resonance Biacore™ 2000 or 3000 biosensor equipped with a research-grade CM5 sensor chip (Biacore™ AB, Uppsala, Sweden—now GE Healthcare). Anti-mouse IgG was first amine coupled to the CM5 sensor surface. Various anti-Trop-2 mouse IgGs were then captured by anti-mouse IgG. Monomeric Trop-2 extracellular domain prepared from papain digestion of Trop-2-Fc fusion protein was then injected as the analyte at 3 fold dilution series. […]

[1] = system: human Trop-2 domains swapped with Trop-1 (EpCAM) or mouse Trop-2 equivalent regions; test: Domain mapping by domain swapping (Biacore); type: binding; conditions: for Binding to Trop-2 domain hybrid, domain 1: domain 1 replaced; for Binding to Trop-2 domain hybrid, domain 2: domain 2 replaced; for Binding to Trop-2 domain hybrid, domain 3: domain 3 replaced; for Binding to Trop-2 domain hybrid, domain 4: domain 4 replaced
Method: Domain mapping was done by swapping the Trop-2 extracellular domains with either Trop-1 (EpCAM) or mouse Trop-2 equivalent regions. […] These hybrid proteins were expressed as human Fc fusion proteins in 293F cells. Binding of anti-Trop-2 antibodies to these domain hybrids were determined by Biacore. […] Table 5. Definition of different domains of Trop-2 can be found, e.g., in Chong et al., J. Biol. Chem. 276(8):5804-13, 2001.

human Trop-1 = molecular target: T2, human Trop-1 (Homo sapiens, UniProt P16422, M115T); test: Binding to human Trop-1; conditions: recombinant mouse IgG2a
T2 sequence (P16422 24-314 M115T): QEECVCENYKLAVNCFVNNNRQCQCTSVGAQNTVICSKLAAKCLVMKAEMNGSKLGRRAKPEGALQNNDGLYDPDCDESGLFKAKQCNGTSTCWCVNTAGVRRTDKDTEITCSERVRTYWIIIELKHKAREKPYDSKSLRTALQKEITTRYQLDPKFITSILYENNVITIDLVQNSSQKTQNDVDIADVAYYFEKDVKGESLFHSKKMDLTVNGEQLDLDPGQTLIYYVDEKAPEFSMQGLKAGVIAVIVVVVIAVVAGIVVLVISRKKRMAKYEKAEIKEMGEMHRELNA

mouse Trop-2 = molecular target: T3, mouse Trop-2 (Mus musculus, UniProt Q8BGV3); test: Binding to mouse Trop-2; conditions: recombinant mouse IgG2a
T3 sequence (Q8BGV3 25-317): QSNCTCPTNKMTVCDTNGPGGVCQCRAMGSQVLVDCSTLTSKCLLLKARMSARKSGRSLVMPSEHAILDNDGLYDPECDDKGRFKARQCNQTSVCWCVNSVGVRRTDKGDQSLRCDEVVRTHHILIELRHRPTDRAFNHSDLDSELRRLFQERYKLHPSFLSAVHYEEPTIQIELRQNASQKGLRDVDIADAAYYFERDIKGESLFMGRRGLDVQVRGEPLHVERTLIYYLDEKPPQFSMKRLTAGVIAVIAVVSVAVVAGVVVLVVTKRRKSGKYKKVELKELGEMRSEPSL

A431 xenograft = test: In vivo efficacy of anti-Trop-2 mouse IgGs, A431 xenograft model; design: species or system nu/nu mice; conditions: 20 mg/kg once a week, 3 doses
Method: In vivo efficacy studies of anti-Trop-2 mouse IgGs were performed with target-expressing A431 xenograft model. Two million A431 epidermoid cancer cells were implanted subcutaneously into 5-8 weeks old nu/nu mice until the tumor sizes reached around 100 mm^3. Animals were randomized by tumor sizes and dosing was done through bolus tail vein injection. Anti-Trop-2 antibodies were expressed as recombinant mouse IgG2a antibodies from 293F transient expression. […] Tumor volume was measured twice a week by a caliper device and calculated with the following formula: Tumor volume=(length×width^2)/2. Studies were terminated before tumor volumes reached 2000 mm^3. TGI (% tumor growth inhibition) was determined as [1-tumor sizes (treatment group)/tumor size (control group)]×100.

SW620 (Trop-2 −) cells = test: Flow cytometry binding, SW620 cells; type: cell-based; conditions: Table 11, 300,000 cells, 1 ug antibody
Method: For A431 cell staining, 200,000 cells were incubated with 0.5 ug antibody in 100 uL binding buffer (PBS (Phosphate Buffered Saline)+0.5% BSA (Bovine Serum Albumin)), followed by incubation with Dylight488-conjugated goat anti-human (Fab′)2-specific secondary antibody from Jackson immunoresearch Laboratories (West Grove, Pa.). For Colo205 and SW620 cells, 300,000 cells were used with 1 ug of primary antibody, followed by AlexaFluor 647 anti-human (Fab′)2-specific secondary antibody from Jackson immunoresearch Laboratories (West Grove, Pa.).
Similar to Example 7a), binding of chimeric mouse and humanized anti-Trop-2 6G11 antibodies (expressed in human IgG1 subtype) were assessed on Trop-2 expressing (A431 and Colo205) and non-expressing (SW620) cells by flow cytometry. 300,000 cells were used with 1 ug of primary antibody, followed by AlexaFluor 647 anti-human (Fab′)2-specific secondary antibody.

[2] = system: SW620 cells (Trop-2 non-expressing); test: Cytotoxicity of ADCs (CellTiter-Glo), SW620; type: cell-based; conditions: Table 13; SW620, Trop2 expression −; 96 hours; concentration of total Ab
Method: Target expressing (A431, BxPC3, CAPAN-2 and Colo205) or non-expressing (SW620) cells were seeded on white walled clear bottom plates at 2000 cells/well for 24 hours before treatment. Cells were treated with 4 fold serially diluted antibody-drug conjugates in triplicates. Cell viability was determined by CellTiter-Glo® Luminescent Cell Viability Assay 96 (Promega, Madison Wis.) 96 hours after treatment. Relative cell viability was determined as percentage of untreated control. IC50 was calculated by Prism software.
2-methylalanyl-N-[(3R,4S,5S)-3-methoxy-1-{(2S)-2-[(1R,2R)-1-methoxy-2-methyl-3-oxo-3-{[(1S)-2-phenyl-1-(1,3-thiazol-2-yl)ethyl]amino}propyl]pyrrolidin-1-yl}-5-methyl-1-oxoheptan-4-yl]-N-methyl-L-valinamide is a novel auristatin, as described in U.S. Application Nos. 61/561,255 and 61/676,423. Method of conjugating Trop-2 antibodies using transglutaminase tags is described in Example 9. Target expressing or non-expressing (SW620) cells were seeded on white walled clear bottom plates at 2000 (A431, BxPC3, NCI-H292, NCI-H1650, MDA-MB-468 and SW620), 2500 (Calu-3) or 3000 (OVCAR3 and SKBR3) cells per well for 24 hours before treatment. Cells were treated with 4 fold serially diluted antibody-drug conjugates in triplicates. Cell viability was determined by CellTiter-Glo® Luminescent Cell Viability Assay 96 (Promega, Madison, Wis.) 96 hours after treatment. Relative cell viability was determined as percentage of untreated control. IC50 was calculated by GraphPad Prism 5 software and expressed as concentration (nM) of total Ab.

BxPC3 xenograft = test: In vivo efficacy of humanized Trop-2 ADCs, pancreatic tumor BxPC3 xenograft model; design: species or system CB17/SCID mice; conditions: single dose, tail vein; FIGS. 9A-9C
Method: In vivo efficacy studies of Trop-2 ADCs were performed with target-expressing BxPC3 xenograft model. Two million BxPC3 pancreatic cancer cells were implanted subcutaneously into 5-8 weeks old CB17/SCID mice until the tumor sizes reached between 300-400 mm^3. […] Tumor volume was measured once a week by a Caliper device and calculated with the following formula: Tumor volume=(length×width^2)/2. Studies were terminated before their tumor volumes reached 2000 mm^3.

Colo205 xenograft = test: In vivo efficacy of Trop-2 ADCs, colorectal tumor Colo205 xenograft model; design: species or system nu/nu mice; conditions: single dose of 6 mg/kg, tail vein; FIG. 10
Method: In vivo efficacy study of Trop-2 ADCs was performed with target-expressing colo205 xenograft model. Three millions of colo205 colon cancer cells were implanted subcutaneously into 5-8 weeks old nu/nu mice until the tumor sizes reached ˜300 mm^3. […] Tumor volume is measured once a week by a Caliper device and calculated with the following formula: Tumor volume=(length×width^2)/2. Studies were terminated before their tumor volumes reached 2000 mm^3.

[3] = system: ovarian cancer patient derived xenograft (PDX Ova196756); test: In vivo efficacy of Trop-2 ADC, ovarian PDX Ova196756; design: species or system CB17/SCID mice; conditions: single dose, […] and 1.5 mg/kg, tail vein; FIG. 11
Method: This tumor sample was derived from surgical specimen and propagated in NSG mice (Jackson Laboratories, Bar Harbor, Me.). For efficacy studies, approximately 1-2 mm^3 of tumor fragments were implanted subcutaneously into the lateral flanks of CB17/SCID mice. […] Tumor volume was measured once a week by a caliper device and calculated with the following formula: Tumor volume=(length×width^2)/2. Studies were terminated before their tumor volumes reached 2000 mm^3.

[4] = system: pancreatic cancer patient derived xenograft (PDX Pan0146); test: In vivo efficacy of Trop-2 ADC, pancreatic PDX Pan0146
Method: In vivo efficacy studies of Trop-2 ADC using humanized anti-Trop-2 antibody (h7E6SVG) conjugated with TG6-vc0101 were performed with target-expressing pancreatic cancer patient derived xenograft model (PDX Pan0146) from Jackson Laboratories (Bar Harbor, Me.). For efficacy studies, 1-2 mm^3 of tumor fragments were implanted subcutaneously into the lateral flanks of the animals. […] Gemcitabine was given at 75 mg/kg twice weekly for a total of 6 doses. […] Gemcitabine was given once weekly at 75 mg/kg for 4 doses. Tumor volume was measured once a week by a Caliper device and calculated with the following formula: Tumor volume=(length×width^2)/2. Studies were terminated before their tumor volumes reached 2000 mm^3.

B1: 6G11: anti-Trop-2 mouse antibody, VL SEQ ID NO: 8, VH SEQ ID NO: 9; also used as chimeric human IgG1 (antibody, V domains shown)
VH: QVQLQQPGAELVRPGASVKLSCKASGYTFTSYWINWVKQRPGHGLEWIGNIYPSDSYSNYNQKFKDKATLTVDKSSSTAYMQVSSPTSEDSAVYYCTYGSSFDYWGQGTTVTVSS
VL: DILLTQSPAILSVSPGERVSFSCRASQTIGTSIHWYQQRTNGSPRLLIKYASESISGIPSRFSGSGSGTDFTLSINSVESEDIADYYCQQSNSWPFTFGSGTKLEIK
huTrop-2
  ka: 270000 M⁻¹ s⁻¹
  kd: 0.0086 s⁻¹
[1]; defined by loss or reduction in binding on domain swapping
  human Trop-2 domains bound: domain 1
[1]; domain replacement hTrop1
  Binding to Trop-2 domain hybrid, domain 1: +
  Binding to Trop-2 domain hybrid, domain 2: −
  Binding to Trop-2 domain hybrid, domain 3: −
  Binding to Trop-2 domain hybrid, domain 4: −
[1]; domain replacement mTrop-2
  Binding to Trop-2 domain hybrid, domain 1: +
  Binding to Trop-2 domain hybrid, domain 2: −
  Binding to Trop-2 domain hybrid, domain 3: −
  Binding to Trop-2 domain hybrid, domain 4: −
Human Trop-1
  binding to human Trop-1: do not bind
Mouse Trop-2
  binding to mouse Trop-2: do not bind
A431 xenograft
  A431 xenograft tumor growth in vivo: inhibit A431 xenograft tumor growth
A431 xenograft; Table 7C
  Mean tumor volume (mm3) on day 27: 444.8 mm3
  TGI (Tumor growth inhibition): 57%
SW620 (Trop-2 −) cells
  % positive: 2.5%
  MFI: 134

B2: h7E6SVG-TG6-vc0101: h7E6SVG with heavy chain C-terminal TG6 tag (SEQ ID NO: 79) conjugated with AcLys-vc-PABC-0101 (conjugate)
VH: QVQLQESGPGLVKPSETLSLTCTVSGGSISSYGVHWIRQPPGKGLEWIGVIWTSGVTDYNSALMGRVTISVDTSKNQFSLKLSSVTAADTAVYYCARDGDYDRYTMDYWGQGTLVTVSS
VL: DIVMTQSPDSLAVSLGERATINCRASKSVSTSGYSYMHWYQQKPGQPPKLLIYLASNLESGVPDRFSGSGSGTDFTLTISSLQAEDVAVYYCQHSRELPYTFGQGTKLEIK
[2]
  IC50: 156 nM
BxPC3 xenograft
  tumor response, BxPC3 xenograft: tumor regression
Colo205 xenograft
  tumor response, Colo205 xenograft: tumor regression
[3]
  tumor response, ovarian PDX Ova196756: tumor regression
[4]; […] weekly x4, 1.5 mg/kg bi-weekly x2 or 3.0 mg/kg single dose, FIG. 12B
  tumor response on continuous dosing, Pan0146 PDX: sustained tumor regression
[4]; single dose vs gemcitabine 75 mg/kg twice weekly, 6 doses, FIG. 12A
  efficacy to induce tumor regression compared with gemcitabine, Pan0146 PDX: superior efficacy to gemcitabine
